From the RNAGym collection of RNA variant scans (doi:10.7554/elife.80360) come the findings set out here.

To fix the notation:
B1: HDV Ribozyme (parent)
chain: GGCCGGCAUGGUCCCAGCCUCCUCGCUGGCGCCGGCUGGGCAACAUUCCGAGGGGACCGUCCCCUCGGUAAUGGCGAAUGGGACCCA

The variants in the data set derive from B1. Briefly: self-cleavage, relative activity (ratio to wild type); higher = more cleavage; co-transcriptional.
Turning to GGCCGGCAUGGUCCCAGCCUCCUCGUUGGCCCCGGCUGGGCAACAUUCCGAGGGGACCGUCCCCUCGGUAAUGGCGAAUGGGACCCA [C26U G31C], the self-cleavage was 0.542.

For GGCCGGCAUGGUCUCAGCCUCCUCGCUGGCGCCGGCAGGGCAACAUUCCGAGGGGACCGUCCCCUCGGUAAUGGCGAAUGGGACCCA [C14U U37A], the self-cleavage turned out to be 0.151.

For the variant GGCCGGCAUGGUCCCAGCCUCCUCGCUGGCGCCGGCUGGGCAACAUUCCGAGGGGACCGUCCCCUCUGUAAUGGCGAAUGGGACCCG [G67U A87G], the self-cleavage is 0.91.

Regarding GGCCGGCAUGGUCCCAGCCUCCUCGCUGGCGCCGGCUGGGCAACAUUCCGAGGUAACCGUCCCCUCGGUAAUGGCGAAUGGGACCCA [G54U G55A], the self-cleavage was determined as 1.01.

Take GGCCGGCAUGGUCCCAGCCUCCUCGCUGGCGCCGGCUGGGCAACAUUUCGACGGGACCGUCCCCUCGGUAAUGGCGAAUGGGACCCA [C48U G52C]: the self-cleavage was found to be 0.847.

In the case of GGCCGGCAUGGACCCAGCCUCCUCGCUGGCGCCGGCUGGGCAACAUUCCGAGGGGACCGUCCCCUCGGUAAUGGCGAAUGGGGCCCA [U12A A83G], the self-cleavage worked out at 0.302.

Consider GGCCGGCAUGGUCCCAGCCUCCUCGCUGGCGCCGGCUGGGCAACAUACCGAGGGGACCGUCCCCUCGGUAUUGGCGAAUGGGACCCA [U47A A71U], for which the self-cleavage was 0.657.

In the case of GGCCGGCAUGGUCCCAGCCUCCUCGCUGGCGCCGGAUGGGCCACAUUCCGAGGGGACCGUCCCCUCGGUAAUGGCGAAUGGGACCCA [C36A A42C], the self-cleavage came out at 0.0583.

As to GGCCGGCAUGGUCCCAGCCUCCUCGCUGGCGGCGGCUGGGCAACAUUCCGAUGGGACCGUCCCCUCGGUAAUGGCGAAUGGGACCCA [C32G G52U], the self-cleavage turned out to be 0.198.

Turning to GGCCGGCAUGAUCCCAGCCUCCUCGCUGGCGCCGGCUUGGCAACAUUCCGAGGGGACCGUCCCCUCGGUAAUGGCGAAUGGGACCCA [G11A G38U], the self-cleavage turned out to be 0.

As to GGCCGGCAUGGUCCCAGCCUCCUCGCUGGUGCCGGCUGGGCCACAUUCCGAGGGGACCGUCCCCUCGGUAAUGGCGAAUGGGACCCA [C30U A42C], the self-cleavage was determined as 0.0282.

In the case of GGCCGGAAUGGUCCCAGCCUCCUCGCUGGCGCCGGCUGGGCAACAUUCCGAGGGGACCGUCCCCUCGGUAAUGGCAAAUGGGACCCA [C7A G76A], the self-cleavage came out at 0.868.

Turning to GGCCGGCAUGGUCCCAGCCUCCUCGCUGGCGCCGGAUGGGCAACAUUCCGAGGGGACCGUCCCCUCGUUAAUGGCGAAUGGGACCCA [C36A G68U], the self-cleavage was found to be 0.157.

Turning to GGCCGGCAUGGUCCCAGCCUCCUCGCUGGCGCCGGCUGGGCCACAUUCCGAGGGGACCGUCCCCUCGGUAAUGGCGAAUCGGACCCA [A42C G80C], the self-cleavage was 0.101.

Turning to GGCCGGCAUGGUCCCAGCCUCCUCGCUGGCGCCGGCUGGGCAACAUUCCGAGGGGACCGUCCCCUCUGUAAUGGCGCAUGGGACCCA [G67U A77C], the self-cleavage is 0.373.

Take GGCCGGCAUGGUCCCAGCCUCCUCGCUGGCGCCGGCUGGGCAACAUUCCGAGGGGACCGUCCCCUCGCUAAAGGCGAAUGGGACCCA [G68C U72A]: the self-cleavage amounted to 0.499.

As for GGCCGUCAUGGUCCCAGCCUCCUCGCCGGCGCCGGCUGGGCAACAUUCCGAGGGGACCGUCCCCUCGGUAAUGGCGAAUGGGACCCA [G6U U27C], the self-cleavage came out at 0.237.

For GGCCGGCAUGAUCCCAGCCUCCUCGCUGGCGCCGGCUGGACAACAUUCCGAGGGGACCGUCCCCUCGGUAAUGGCGAAUGGGACCCA [G11A G40A], the self-cleavage was 0.582.

For GGCCGGCAUGGUCCCAGCCUCCUCGCUGGCGCCGGCUGGGCAACAUUCCGAGGGGACCGUCCCCUCGGUAAUGGCGAAUGGUACCCA [G82U], the self-cleavage came to 0.41.

Take GGCCGGCAUGGUCCCAGCCUCUUCGCUGGCGCCGGCUGGGCAACAUUCCGAGGGGACCGUCCCCUCGGUAAUGGCGAAGGGGACCCA [C22U U79G]: the self-cleavage worked out at 0.178.

For GGCCGGCAUGGUCCCAGCUUCCUCGCUGGCGCCGGCUGGGGAACAUUCCGAGGGGACCGUCCCCUCGGUAAUGGCGAAUGGGACCCA [C19U C41G], the self-cleavage turned out to be 0.116.

Turning to GGCCGGCAUGGUCCCAGCCUCCUCGCUGGCGCCGGCUGGGCAACAUUCCGUGGGGACCGUCCCCUCGGUAAUGGCGGAUGGGACCCA [A51U A77G], the self-cleavage stood at 0.615.

Turning to GGCCGGCAUGGUCCAAGCCUCCUCGCUGGCGCCGGCUGGGCAACAUUCCGAGGGGACCGUCCCCUCGGUAAUGGCGAAUAGGACCCA [C15A G80A], the self-cleavage worked out at 0.831.

As for GGCCGGCAUGGUCCCAGCCUCCUCGCUGGCGCCGGCUGGGCAACAUUCCGAGGGGACCGUUCCCUCGGGAAUGGCGAAUGGGACCCA [C61U U69G], the self-cleavage is 0.864.

Consider GGCCGGCAUGGUCCCAGCCUCCUCGCUGGCGCCGGCUGGGCAACAUUCCGAGGGGACCGUCCCAUGGGUAAUGGCGAAUGGGACCCA [C64A C66G], for which the self-cleavage turned out to be 0.489.

Regarding GGCCGGCAUGGUCCCAGCCUCCUCGCUGGCGCCGGCAGGGCAACAUUCCGAGGGGACCGUCCCCUCGGUAAUGGCGAAUGAGACCCA [U37A G81A], the self-cleavage turned out to be 0.166.

With GGCCGGCAUGGUCCCAGCCUCCUCGCUGACGGCGGCUGGGCAACAUUCCGAGGGGACCGUCCCCUCGGUAAUGGCGAAUGGGACCCA [G29A C32G], the self-cleavage stood at 0.0219.

GGCCGGCAUGGUCCCAGCCUCCUCGCUGGCGCCGGCUGGGCAACAUUCCCAGGGGACCGUCCCCUCGGUAAUGGCGAAUGUGACCCA [G50C G81U]: the self-cleavage came out at 0.263.

With GGCCAGCAUGGUCCCAGCCUCCUCGCUGGCGCCGGCUGGGCAACAUUCCGAGGGGACCGUCCCCUCGGUAAUGGCGAAGGGGACCCA [G5A U79G], the self-cleavage turned out to be 0.0923.

Regarding GGCCGGCAUGGUCCCAGCCUCCUCGCUGGCGCCGGCUGGGCAACAUUCCGAGGGGAUCGUCCCCUCGGUAAUGGCGAAUGGGACGCA [C57U C85G], the self-cleavage was found to be 0.984.

Consider GGCCGGCAUGGUACCAGCCUCCUCGCUGGCGCCGGCUGGGCGACAUUCCGAGGGGACCGUCCCCUCGGUAAUGGCGAAUGGGACCCA [C13A A42G], for which the self-cleavage came to 0.142.

For GGCCGGCAUGGUCCCAGCCUCCUCGCUGGCGCCGGCUGGGCAACAUUCCGAGGGGACCGUCCCCUUGGGAAUGGCGAAUGGGACCCA [C66U U69G], the self-cleavage was 0.867.
